Results: article PMC12287161, “A bioactive soluble recombinant mouse LIGHT promotes effective tumor immune cell infiltration delaying tumor growth” (Journal of Molecular Medicine (Berlin, Germany), 2025)

T1: mHVEM:Fas (mouse | human, UniProt Q80WM9 39-206; P25445 169-335)
T1 chain: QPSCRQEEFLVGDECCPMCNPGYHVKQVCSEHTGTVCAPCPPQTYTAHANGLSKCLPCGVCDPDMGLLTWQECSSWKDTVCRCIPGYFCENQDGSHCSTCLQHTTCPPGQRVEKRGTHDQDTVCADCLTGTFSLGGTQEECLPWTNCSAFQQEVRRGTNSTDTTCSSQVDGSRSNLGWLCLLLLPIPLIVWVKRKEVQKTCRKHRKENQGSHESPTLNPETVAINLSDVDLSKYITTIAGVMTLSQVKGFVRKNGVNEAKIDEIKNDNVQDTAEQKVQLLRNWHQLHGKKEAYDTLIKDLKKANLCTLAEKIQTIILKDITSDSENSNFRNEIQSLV

B1: Ig.Foldon-mLIGHT (Fc fusion)
chain: GYIPEAPRDGQAYVRKDGEWVLLSTFLDGGKGSWEKLIQDQRSHQANPAAHLTGANASLIGIGGPLLWETRLGLAFLRGLTYHDGALVTMEPGYYYVYSKVQLSGVGCPQGLANGLPITHGLYKRTSRYPKELELLVSRRSPCGRANSSRVWWDSSFLGGVVHLEAGEEVVVRVPGNRLVRPRDGTRSYFGAFMV
B2: Flag-Foldon-mLIGHT (ligand)
chain: GYIPEAPRDGQAYVRKDGEWVLLSTFLDGGKGSWEKLIQDQRSHQANPAAHLTGANASLIGIGGPLLWETRLGLAFLRGLTYHDGALVTMEPGYYYVYSKVQLSGVGCPQGLANGLPITHGLYKRTSRYPKELELLVSRRSPCGRANSSRVWWDSSFLGGVVHLEAGEEVVVRVPGNRLVRPRDGTRSYFGAFMV
notes: Foldon, small homotrimeric domain; mouse LIGHT (TNFSF14, CD258), aa 72-239 of the 239 amino acids-long protein; the majority ran as poorly active species of around 500 kDa; also called pIB-173; source: HEK-293T, conditioned supernatant

Columns and labels:
mHVEM:Fas = molecular target: T1, mHVEM:Fas; assay: cell-based or functional assay
[1] = molecular target: the molecule itself; assay: SEC; Superdex S200 Increase HR 10/30 in PBS, 0.55 ml/min, 250 µl of affinity-purified protein; 1 ml fractions analysed by Western blot and on reporter cells; column calibrated with protein standards

Binder	EC50 of killing of mHVEM:Fas reporter cells (MTS/PMS) by conditioned supernatants of B16.F10 cells expressing Ig.Foldon-mLIGHT (mHVEM:Fas) [µg/mL]	EC50 of killing of mHVEM:Fas reporter cells (MTS/PMS) by purified Ig.Foldon-mLIGHT (mHVEM:Fas) [µg/mL]	stoichiometry N [1]
B1	0.0019	0.051	
B2			3
